Assay results from IntAct's records for PubMed 17166838.

B1: Huntingtin-associated protein 1 (Rattus norvegicus (Rat)), P54256-2 (parent)
chain: MRPKDQVQSSAGDGTGSGDPATGTPTTQPAADPAPEPSAEPKPAPAQGTGSGQKSGSRTKTGGSFCRSRIRGDSDAPWTRYIFQGPYGPRATGLGTGRAEGIWKTPAAYIGRRPGVSGPERAAFIRELQEALCPNPLPRKKITEDDIKVMLYLLEEKERDLNTAARIGQSLVKQNSVLMEENNKLETMLGSAREEILHLRKQVNLRDDLLQLYSDSDDDEEDEEDEEEEEGEEEEREGQRDQDQQHDHPYGAPKPPPKAETLHHCPQLEALKQKLKLLEEENDHLREEASHLDNLEDKEQMLILECVEQFSEASQQMAELSEVLVLRLEGYERQQKEITQLQAEITKLQQRCQSYGAQTEKLQQQLASEKGVHPESLRAGSHMQDYGSRPRERQEDGKSHRQRSSMPAGSVTHYGYSVPLDALPSFPETLAEELRTSLRKFITDPAYFMERCDTRCREERKKEQGTMPPPPVQDLKPPEDFEAPEELVPEEELGAIEEVGTAEDGPAEETEQASEETEAWEEVEPEVDEATRMNVVVSALEASGLGPSHLDMKYVLQQLSNWQDAHSKRQQKQKVVPKGECSRRGHPPASGTSYRSSTL

Variants of: B1
Conditions: with 1433z_human YWHAZ

effect of a mutation on the interaction | Variant
disrupting interaction | MRPKDQVQSSAGDGTGSGDPATGTPTTQPAADPAPEPSAEPKPAPAQGTGSGQKSGSRTKTGGSFCRSRIRGDSDAPWTRYIFQGPYGPRATGLGTGRAEGIWKTPAAYIGRRPGVSGPERAAFIRELQEALCPNPLPRKKITEDDIKVMLYLLEEKERDLNTAARIGQSLVKQNSVLMEENNKLETMLGSAREEILHLRKQVNLRDDLLQLYSDSDDDEEDEEDEEEEEGEEEEREGQRDQDQQHDHPYGAPKPPPKAETLHHCPQLEALKQKLKLLEEENDHLREEASHLDNLEDKEQMLILECVEQFSEASQQMAELSEVLVLRLEGYERQQKEITQLQAEITKLQQRCQSYGAQTEKLQQQLASEKGVHPESLRAGSHMQDYGSRPRERQEDGKSHRQRSSMPAGSVTHYGYSVPLDALPSFPETLAEELRTSLRKFITDPAYFMERCDTRCREERKKEQGTMPPPPVQDLKPPEDFEAPEELVPEEELGAIEEVGTAEDGPAEETEQASEETEAWEEVEPEVDEATRMNVVVSALEASGLGPSHLDMKYVLQQLSNWQDAHSKRQQKQKVVPKGECSRRGHPPASGTSYRSSAL [T598A]
